Assay results published in publication PMC6561789 (Molecular microbiology, 2019).
Residue numbers refer to the chain shown, from its start. In names and notes the source's numbering stands.

Tests used:
[1] = molecular target: the molecule itself; test: AUC
[2] = molecular target: the molecule itself; test: SEC

B1: HigA antitoxin (Proteus vulgaris, Rts1 plasmid), wild type (natural protein)
chain: MRQFKVSHPGEMIARDLEDMGVSGRRFAHNIGVTPATVSRLLAGKTALTPSLSIRIAAALGSTPEFWLRLQSNYDLRQLENQIDTSGIVLYGESNEQQQNAQEH
- stoichiometry N [1]: 2

B2: HigA R40A variant (Proteus vulgaris, Rts1 plasmid) (natural protein)
chain: B1 chain with R40A
- stoichiometry N [2]: 2
